Results from the supplement of paper PMC5949888.

Tested on: Saccharomyces cerevisiae PS128 hsf1 delta, HSF1(1-493) fusion
Test: growth estimate (transactivation domain function in HSF1 fusion, heat-shock survival) (a.u. (slope of normalised read count over time)); higher = stronger growth at 37°C, i.e. more transactivation activity
Settings: library: design library
Outline: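 Transactivation-domain oligos were designed and fused to a truncated yeast HSF1 (amino acids 1–493), then expressed in a yeast strain lacking hsf1. Replica plating onto –trp 5-FOA plates was followed by incubation at 30°C or 37°C for 0, 2, 4, 6 and 8 days. Inserts were amplified by PCR and sequenced on an Illumina MiSeq as six barcoded replicates from a single experiment. The growth estimate is the slope of a robust linear fit over time of read counts normalised to sample totals and to starting count.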

Row | Sequence | growth estimate
1 | PEFPGIKLQELQELQALLQQ | -0.02
2 | PEFPGIPLQELQELQALLQQ | -0.204
3 | PEFPGIRLQELQELQALLQQ | -0.249
4 | PEFPGKELQELQELQALLQQ | < -0.25
5 | PEFPGRELQELQELQALLQQ | < -0.25
6 | PEFPKIELQELQELQALLQQ | < -0.25
7 | PEFPPIELQELQELQALLQQ | -0.0915
8 | PEFRGIELQELQELQALLQQ | -0.124
9 | PEGPGIELQELQELQALLQQ | < -0.25
10 | PEKPGIELQELQELQALLQQ | -0.204
11 | PELSWIIELLEKDG | -0.201
12 | PEPPGIELQELQELQALLQQ | < -0.25
13 | PFADTQDDFLKWWRSEEAQ | 0.444
14 | PFDLDMLGDFDLDMLG | 4.25
15 | PFDYDFLFGNDFA | 2.14
16 | PFGDTQDDFLKWWRSEEAQ | 0.304
17 | PFNDLLDLDFILSN | 0.542
18 | PFPATQDDFLKWWRSEEAQ | < -0.25
19 | PFPDAQDDFLKWWRSEEAQ | -0.158
20 | PFPDPQDDFLKWWRSEEAQ | -0.0255
21 | PFPDRQDDFLKWWRSEEAQ | -0.241
22 | PFPDTADDFLKWWRSEEAQ | 0.6
23 | PFPDTGDDFLKWWRSEEAQ | -0.0916
24 | PFPDTKDDFLKWWRSEEAQ | < -0.25

Row | Sequence | growth estimate
25 | PFPDTPDDFLKWWRSEEAQ | 0.819
26 | PFPDTQADFLKWWRSEEAQ | < -0.25
27 | PFPDTQDAFLKWWRSEEAQ | 0.5
28 | PFPDTQDDFGKWWRSEEAQ | < -0.25
29 | PFPDTQDDFLAWWRSEEAQ | 2.37
30 | PFPDTQDDFLKAWRSEEAQ | < -0.25
31 | PFPDTQDDFLKGWRSEEAQ | -0.242
32 | PFPDTQDDFLKKWRSEEAQ | -0.167
33 | PFPDTQDDFLKPWRSEEAQ | < -0.25
34 | PFPDTQDDFLKWARSEEAQ | 0.0578
35 | PFPDTQDDFLKWPRSEEAQ | < -0.25
36 | PFPDTQDDFLKWRRSEEAQ | -0.221
37 | PFPDTQDDFLKWWASEEAQ | 4.59
38 | PFPDTQDDFLKWWGSEEAQ | 1.82
39 | PFPDTQDDFLKWWKSEEAQ | -0.186
40 | PFPDTQDDFLKWWPSEEAQ | 3.12
41 | PFPDTQDDFLKWWRGEEAQ | 0.0794
42 | PFPDTQDDFLKWWRKEEAQ | -0.247
43 | PFPDTQDDFLKWWRSEAAQ | -0.154
44 | PFPDTQDDFLKWWRSEEAA | -0.236
45 | PFPDTQDDFLKWWRSEEAG | 0.0636
46 | PFPDTQDDFLKWWRSEEAK | -0.25
47 | PFPDTQDDFLKWWRSEEAP | 0.0281
48 | PFPDTQDDFLKWWRSEEAQ | -0.149

Row | Sequence | growth estimate
49 | PFPDTQDDFLKWWRSEEAR | -0.248
50 | PFPDTQDDFLKWWRSEEGQ | 0.109
51 | PFPDTQDDFLKWWRSEEKQ | < -0.25
52 | PFPDTQDDFLKWWRSEGAQ | -0.0427
53 | PFPDTQDDFLKWWRSEPAQ | -0.225
54 | PFPDTQDDFLKWWRSERAQ | < -0.25
55 | PFPDTQDDFLKWWRSKEAQ | -0.183
56 | PFPDTQDDFLKWWRSPEAQ | -0.176
57 | PFPDTQDDFLKWWRSREAQ | < -0.25
58 | PFPDTQDDFLPWWRSEEAQ | -0.145
59 | PFPDTQDDFLRWWRSEEAQ | -0.0276
60 | PFPDTQDDFRKWWRSEEAQ | -0.247
61 | PFPDTQDDKLKWWRSEEAQ | -0.245
62 | PFPDTQDDPLKWWRSEEAQ | < -0.25
63 | PFPDTQDDRLKWWRSEEAQ | -0.109
64 | PFPDTQDGFLKWWRSEEAQ | < -0.25
65 | PFPDTQDPFLKWWRSEEAQ | < -0.25
66 | PFPDTQDRFLKWWRSEEAQ | < -0.25
67 | PFPDTQGDFLKWWRSEEAQ | -0.248
68 | PFPDTQKDFLKWWRSEEAQ | < -0.25
69 | PFPDTQPDFLKWWRSEEAQ | -0.22
70 | PFPDTQRDFLKWWRSEEAQ | -0.245
71 | PFPGTQDDFLKWWRSEEAQ | < -0.25
